According to paper PMC10156733, “N-Formimidoylation/-iminoacetylation modification in aminoglycosides requires FAD-dependent and ligand-protein NOS bridge dual chemistry” (Nature Communications, 2023):

Key:
[1] = biological target: T1, Orf1 (Streptomyces luteocolor, UniProt A0A125SZC1); assay: LC-MS of denatured protein; X-ray crystal structure; format: binding; conditions: prosthetic group, copurified
T1 construct: full length, 491 residues; pET28a, His-tagged (Ni-NTA), E. coli BL21(DE3); tetramer with FAD in each chain; peptide AFAC281GLHLVPR
T1 sequence (A0A125SZC1 1-491): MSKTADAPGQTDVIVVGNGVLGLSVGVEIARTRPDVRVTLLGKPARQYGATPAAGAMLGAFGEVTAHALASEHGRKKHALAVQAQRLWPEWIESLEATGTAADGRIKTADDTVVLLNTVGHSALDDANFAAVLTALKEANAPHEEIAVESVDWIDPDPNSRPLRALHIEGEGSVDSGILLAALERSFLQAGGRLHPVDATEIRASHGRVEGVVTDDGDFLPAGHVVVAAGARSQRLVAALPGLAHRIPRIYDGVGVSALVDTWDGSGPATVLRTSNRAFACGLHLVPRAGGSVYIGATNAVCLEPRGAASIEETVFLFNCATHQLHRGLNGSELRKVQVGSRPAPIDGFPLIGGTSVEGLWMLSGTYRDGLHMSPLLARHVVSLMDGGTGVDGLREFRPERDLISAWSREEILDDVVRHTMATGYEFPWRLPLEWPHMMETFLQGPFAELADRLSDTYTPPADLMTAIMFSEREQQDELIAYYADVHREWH

[2] = biological target: T2, AAC(6’)-Ie-APH(6”)-Ia; aac(6’)-Ie-aph(2”)-Ia (Staphylococcus aureus, UniProt P0A0C1); assay: in vitro N-acetylation assay; format: biochemical; conditions: acetylation only to some extent
T2 construct: gene aacA-aphD; synthetic gene, recombinant

[3] = biological target: T3, Orf1 (Streptomyces luteocolor, UniProt A0A125SZC1, R342A); assay: isothermal titration calorimetry; format: binding
T3 construct: full length, 491 residues; pET28a, His-tagged (Ni-NTA), E. coli BL21(DE3); tetramer with FAD in each chain; peptide AFAC281GLHLVPR
Source text: isothermal titration calorimetry on Orf1 | held the same ST-F binding affinity as the wild type

[4] = biological target: T4, Orf1 (Streptomyces luteocolor, UniProt A0A125SZC1, E312A); assay: isothermal titration calorimetry; format: binding
T4 construct: full length, 491 residues; pET28a, His-tagged (Ni-NTA), E. coli BL21(DE3); tetramer with FAD in each chain; peptide AFAC281GLHLVPR

[5] = biological target: T1, Orf1; assay: isothermal titration calorimetry; format: binding
Source text: isothermal titration calorimetry on Orf1 | binding affinities of ST-F versus Orf1 wild-type or mutants were estimated

[6] = tested on: NCCCC(N)CC(=O)NC1C(N=C2NC3C(=O)NCC(O)C3N2)OC(CO)C(OC(N)=O)C1O; assay: LC-MS of ST-F consumption; format: biochemical, Streptomyces luteocolor; conditions: glycine + ST-F, ST-F varied 25-500 μM, 100 mM sodium phosphate pH 8, 37 °C, crystal complex with glycine
[7] = substrate: NCCCC(N)CC(=O)NC1C(N=C2NC3C(=O)NCC(O)C3N2)OC(CO)C(OC(N)=O)C1O; assay: LC-MS of ST-F consumption; format: biochemical, Streptomyces luteocolor; conditions: glycine + ST-F, ST-F varied 25-500 μM, 100 mM sodium phosphate pH 8, 37 °C
[8] = substrate: NCC(=O)O; assay: purified protein; format: biochemical, Streptomyces luteocolor; conditions: single substrate glycine (oxidation phase), 100 mM sodium phosphate pH 8, crystal complex also shows covalent glycine imine-N-O-S adduct at C281

Q: How did the “LC-MS of denatured protein; X-ray crystal structure” value [1] turn out when `Cc1cc2nc3c(=O)[nH]c(=O)nc-3n(C[C@H](O)[C@H](O)[C@H](O)COP(=O)(O)OP(=O)(O)OC[C@H]3O[C@@H](n4cnc5c(N)ncnc54)[C@H](O)[C@@H]3O)c2cc1C` [FAD] was run?
A: This yellow cofactor was determined to be flavin adenine dinucleotide (FAD)

Q: `NCC(=O)N[C@@H]1[C@H](O)[C@@H](OC(N)=O)[C@@H](CO)O[C@H]1N=C1N[C@@H]2[C@H](O)CNC(=O)[C@H]2N1` [compound 4, glycylthricin] was tested. Which “in vitro N-acetylation assay” value [2] did it give?
A: inactivated glycylthricin by N-acetylation to some extent in in vitro assay

Q: With `NCCCC(N)CC(=O)NC1C(N=C2NC3C(=O)NCC(O)C3N2)OC(CO)C(OC(N)=O)C1O` (centres unmarked) [compound 7, ST-F] as the molecule, how does the Kd [3] read?
A: 14.3 µM

Q: What about the Kd [4] of the same molecule?
A: 55.2 µM

Q: What about the Kd [5] of the same molecule?
A: 11.3 µM

Q: Which results are given for Orf1 (Streptomyces luteocolor; F316A)?
A: Km [6]: 190 µM; kcat [6]: 0.119 s⁻¹

B1: Orf1 (Streptomyces luteocolor) (protein)
chain: MSKTADAPGQTDVIVVGNGVLGLSVGVEIARTRPDVRVTLLGKPARQYGATPAAGAMLGAFGEVTAHALASEHGRKKHALAVQAQRLWPEWIESLEATGTAADGRIKTADDTVVLLNTVGHSALDDANFAAVLTALKEANAPHEEIAVESVDWIDPDPNSRPLRALHIEGEGSVDSGILLAALERSFLQAGGRLHPVDATEIRASHGRVEGVVTDDGDFLPAGHVVVAAGARSQRLVAALPGLAHRIPRIYDGVGVSALVDTWDGSGPATVLRTSNRAFACGLHLVPRAGGSVYIGATNAVCLEPRGAASIEETVFLFNCATHQLHRGLNGSELRKVQVGSRPAPIDGFPLIGGTSVEGLWMLSGTYRDGLHMSPLLARHVVSLMDGGTGVDGLREFRPERDLISAWSREEILDDVVRHTMATGYEFPWRLPLEWPHMMETFLQGPFAELADRLSDTYTPPADLMTAIMFSEREQQDELIAYYADVHREWH
notes: full length, 491 residues; pET28a, His-tagged (Ni-NTA), E. coli BL21(DE3); tetramer with FAD in each chain; peptide AFAC281GLHLVPR
Q: With B1 as the molecule, how does the Km [7] read?
A: 196 µM

Q: What about the kcat [7] of the same molecule?
A: 0.0513 s⁻¹

Q: And the Km [8]?
A: 202 µM

Q: What about the kcat [8] of the same molecule?
A: 0.0123 s⁻¹
